From article PMC10747430, “^99mTc-Labeled Cyclic Peptide Targeting PD-L1 as a Novel Nuclear Imaging Probe” (Pharmaceutics, 2023)

Legend:
Stability in human serum = assay type: in vitro ADME; conditions: human serum (diluted 5x), 37 °C, n = 3
Method: The stability of [^99mTc]Tc-iPD-L1 and [^99mTc]Tc-WL12 was evaluated by diluting the samples in human serum (5x). The radiopharmaceuticals (n = 3) were heated at 37 °C and analyzed at 0.5, 3, and 24 h for radiochemical purity by size-exclusion radio-HPLC (ProteinPak 300SW, Waters Corporation, Milford, CT, USA).
The radioactivity from [^99mTc]Tc-iPD-L1 bound to serum proteins was 1.3 ± 0.8% at 30 min, 3.2 ± 1.3% at 3 h, and 7.6 ± 1.9% at 24 h. High radiochemical stability (>90% at 24 h) was also observed. In the case of [^99mTc]Tc-WL12, protein binding was 1.0 ± 0.4% at 30 min, 3.3 ± 0.9% at 3 h, and 6.0 ± 1.3% at 24 h, with a radiochemical purity of >90% at 24 h. Therefore, there was no significant difference […] in protein binding and serum stability between the radiotracers.

[1] = system: HCT116 cells (PD-L1 positive); assay: Cellular uptake and internalization, HCT116; assay type: cell-based, human; conditions: HCT116, 1 × 10^6 cells/tube, 7.4 kBq, 37 °C, 1 h, n = 3
Method: Human colorectal cancer HCT116 (PD-L1 positive: 45.1 nTPM), human lung cancer HCC827 (PD-L1 positive: 27.1 nTPM), and […] C6 glioma cells (PD-L1 negative control) were obtained from ATCC (Atlanta, GA, USA). FBS, RPMI, and cell culture medium were obtained from Bovine and Biology (CDMX, MX). Cells were cultured in RPMI medium (5% CO2; 100 µg/mL penicillin, 15% fetal bovine serum, and 100 µg/mL streptomycin; 37 °C).
Cells diluted in phosphate-buffered saline (PBS) (pH 7.4) (1 × 10^6 cells/tube) received three different treatments: (a) [^99mTc]Tc-iPD-L1 (7.4 kBq) (n = 3), (b) and [^99mTc]Tc-WL12 (7.4 kBq) (n = 3), and (c) ^99mTcO4Na (7.4 kBq) (n = 3). Cells were incubated with each treatment at 37 °C for one hour. After incubation, tubes were measured in a NaI(Tl) detector (NML Inc., Houston, TX, USA) to establish the initial or first activity (100%). The tubes were spun at 500 g for 10 min, rinsed once with PBS, and spun once more. The liquid was removed, and the activity in the button was determined, indicating the percentage of cellular uptake (surface uptake) regarding the initial or first activity. Acetic acid/0.5 M NaCl was added, the tubes were centrifuged, and the activity was measured. The liquid was removed, and activity in button activity represented the percentage of activity internalized by cells relative to uptake activity (internalization fraction of surface uptake). […]

[2] = Reversed-phase radio-HPLC retention time (lipophilicity); assay type: physicochemical; conditions: µBondapak C18 3.9 mm × 30 cm, linear gradient 0.1% TFA-acetonitrile / 0.1% TFA-water in 20 min; used as measure of lipophilicity
Method: For quality control of the [^99mTc]Tc-iPD-L1 and [^99mTc]Tc-WL12 formulations, parameters such as appearance (clear solution), pH (neutral), sterility, absence of bacterial endotoxins, and radiochemical purity (radio-HPLC; Waters Corporation, Milford, CT, USA; 3.9 mm × 30 cm µBondapak™ C18 column; linear gradient system; solvent A: 0.1% TFA-acetonitrile and solvent B: 0.1% TFA-water, from 100 to 30% of A in 20 min) were evaluated according to the Mexican Pharmacopoeia, in its section on “General Methods of Analysis” (MGA). The retention time of [^99mTc]Tc-WL12 was 15.0 ± 0.3 min and 15.5 ± 0.2 min for [^99mTc]Tc-iPD-L1, while the retention times of ^99mTcO4^− and [^99mTc]Tc-EDDA/tricine were 3.5 ± 0.2 min and 4.5 ± 0.2 min, respectively.
The radiochemical purities of [^99mTc]Tc-iPD-L1 and [^99mTc]Tc-WL12 were 95.5 ± 1.5% without the need for additional purification, as determined by reversed-phase radio-HPLC (Figure 8). As expected, the retention time of [^99mTc]Tc-iPD-L1 was higher than that of [^99mTc]Tc-WL12, which is associated with their CLogP values of 6.38 and 5.78, respectively.
Figure 8 Radio-chromatogram of (a) [^99mTc]Tc-iPD-L1 and (b) [^99mTc]Tc-WL12. Reversed-phase column (C18, 3.9 × 300 mm, 10µm particle size).

[3] = system: HCC827 lung cancer tumors; assay: Biodistribution in mice bearing HCC827 tumors; assay type: in vivo, mouse; conditions: mean over 1, 3 and 24 h
Method: All animal procedures were performed following the Institutional Animal Care and Use Committee requirements under an approved protocol (No. 09-2018-2022) and the Ethical Regulations for the Handling of Laboratory Animals (NOM-062-ZOO-1999). Male Nu/Nu (CINVESTAV, I.PN., Mexico City, Mexico) mice, 6–8 weeks of age, were maintained in an aseptic barrier environment. Mice were inoculated by subcutaneous injection of 1 × 10^6 HCC827 cells/0.1 mL PBS into the upper back. Injection sites were monitored periodically for tumor progression. On day ten after tumor cell inoculation, animals were injected with 18.5 MBq (50 µL) of [^99mTc]Tc-iPD-L1 or 18.5 MBq (50 µL) of [^99mTc]Tc-WL12 by tail vein injection. The animals were sacrificed at 1, 3, and 24 h (n = 3). Kidneys, lungs, heart, liver, spleen, pancreas, small intestine, stomach, muscle, and blood and tumor samples were dissected. Radioactivity was determined in a sodium iodide detector. The results were stated as % injected dose/g.
After 24 h, the activity in tumors was 3.21 ± 0.45 %ID/g ([^99mTc]Tc-WL12) and 5.65 ± 0.98 %ID/g ([^99mTc]Tc-iPD-L1). […] This behavior is related to the higher lipophilicity of [^99mTc]Tc-iPD-L1 compared to [^99mTc]Tc-WL12.

CCCC[C@H]1C(=O)N(C)[C@@H](CCCC)C(=O)N[C@@H](CCCNC(=O)c2ccc(NN)nc2)C(=O)N[C@H](C(=O)NCC(N)=O)CSCC(=O)N[C@@H](Cc2ccc(O)cc2)C(=O)N(C)[C@@H](C)C(=O)N[C@@H](CC(N)=O)C(=O)N2CCC[C@H]2C(=O)N[C@@H](Cc2c[nH]cn2)C(=O)N[C@@H](CC(C)C)C(=O)N2C[C@H](O)C[C@H]2C(=O)N[C@@H](Cc2c[nH]c3ccccc23)C(=O)N[C@@H](CO)C(=O)N[C@@H](Cc2cn(C)c3ccccc23)C(=O)N1C [[^99mTc]Tc-WL12, metal not drawn]
stability in human serum (Stability in human serum; 30 min, 3 h and 24 h, size-exclusion radio-HPLC): remained stable
remaining at 24 h (Stability in human serum; 24 h, size-exclusion radio-HPLC (ProteinPak 300SW), read-out: radiochemical stability / radiochemical purity in human serum at 24 h): > 90%
uptake and internalization compared to C6 cells (PD-L1 negative) [1]: significantly higher
retention time, reversed-phase radio-HPLC [2]: 15.0 ± 0.3 min
mean percentage of tumor uptake over time (two-way ANOVA) [3]: 6.617
